In series [1] the target is T1, CBC (Homo sapiens, UniProt P52298).
T1 sequence (P52298 1-156): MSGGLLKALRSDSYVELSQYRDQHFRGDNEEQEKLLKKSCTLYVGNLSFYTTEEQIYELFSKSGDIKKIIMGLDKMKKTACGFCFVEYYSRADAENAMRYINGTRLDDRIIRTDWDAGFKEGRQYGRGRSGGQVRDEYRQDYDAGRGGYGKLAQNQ
T1 sequence (Q09161 20-790 partner): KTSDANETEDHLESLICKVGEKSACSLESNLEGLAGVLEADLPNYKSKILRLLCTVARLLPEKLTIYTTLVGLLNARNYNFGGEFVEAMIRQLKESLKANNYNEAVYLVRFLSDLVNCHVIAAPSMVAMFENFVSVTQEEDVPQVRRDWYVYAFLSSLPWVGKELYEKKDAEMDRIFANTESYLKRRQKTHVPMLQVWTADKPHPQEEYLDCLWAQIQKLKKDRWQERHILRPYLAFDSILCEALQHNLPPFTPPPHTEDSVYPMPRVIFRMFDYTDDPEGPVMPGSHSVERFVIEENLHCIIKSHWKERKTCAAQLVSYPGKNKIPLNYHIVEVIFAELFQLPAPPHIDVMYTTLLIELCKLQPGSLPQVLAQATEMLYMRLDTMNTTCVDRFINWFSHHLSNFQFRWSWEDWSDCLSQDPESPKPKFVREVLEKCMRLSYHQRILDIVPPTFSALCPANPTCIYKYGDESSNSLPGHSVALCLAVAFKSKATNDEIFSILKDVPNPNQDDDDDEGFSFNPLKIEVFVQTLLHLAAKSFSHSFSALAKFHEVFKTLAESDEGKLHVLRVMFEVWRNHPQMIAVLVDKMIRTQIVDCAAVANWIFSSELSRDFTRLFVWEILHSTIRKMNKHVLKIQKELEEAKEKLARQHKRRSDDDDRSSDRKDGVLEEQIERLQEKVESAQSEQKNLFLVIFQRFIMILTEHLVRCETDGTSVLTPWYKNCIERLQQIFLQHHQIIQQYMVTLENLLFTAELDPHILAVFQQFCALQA
The series is described as follows: Size exclusion chromatography (gel filtration) co-elution with CBC, without m^7GTP. It counts as binding. To be noted: fractions analysed by SDS-PAGE, absence of m^7GTP. As to the method: Fig. 1 The interaction of CBC with ARS2 is enhanced in the presence of m^7GTP. a Schematic diagram of the domain structure of ARS2 based on ref. [26]. b Gel filtration chromatogram and Coomassie-stained SDS-PAGE of CBC-ARS2 in the presence and absence of m^7GTP. Purified recombinant CBC and ARS2^147–871 were mixed with (orange) or without (blue) 500 µM m^7GTP and subjected to gel filtration. Their elution profiles were overlaid (left) and single fractions analysed by SDS-PAGE (middle and right). Purified recombinant CBC and C-terminally truncated ARS2^147–845 were mixed with 500 µM m^7GTP and analysed in a similar way (bottom left). c ITC data and curve fit to derive the affinity of different ARS2 constructs for CBC. CBC or m^7GTP-CBC in the sample cell was titrated by ARS2. […] K D values and standard deviation represent the average from at least two independent experiments. d Sequence alignment of the C-terminus of ARS2. Conserved residues are highlighted in red. Figure made with ESPript[54]
Fig. 2 The interaction of CBC with NELF-E is enhanced in the presence of m^7GTP. a Schematic diagram of the domain structure of NELF-E. b Gel filtration chromatogram and Coomassie-stained SDS-PAGE of CBC-NELF-E in the presence and absence of m^7GTP. […] Their elution profiles were overlaid (left) and single fractions analysed by SDS-PAGE (middle and right). […]

Series [2] concerns the target T1, CBC. The experiment in a line: ITC, binding to CBC without cap analogue. To be noted: ITC (MicroCal ITC200), 25 °C, 20 mM HEPES, 120 mM NaCl, 2 mM TCEP, pH 7.8, single-site fit; no cap analogue pre-bound; mean ± SD of at least two independent experiments; SD. The text has this: hARS2 isoform-4 (871 residues, UniProt:Q9BXP5-4, also known as isoform-e, NP_001122326) constructs (residues 147–871, 147–845, 763–871, 763–845, 827–871) hNELF-E (NM_002904.5) (244–380, 244–360) and hPHAX (NM_032177.3) (1–394, 103–294, 103–308, 103–327) were cloned into pETM11 (EMBL). Full-length hNELF-E (1–380) was cloned into pFASTBac and CBP20 into pETM30. Primers used are given in Supplementary Table 2. All constructs were expressed in E. coli Rosetta 2 (Novagen), except full-length NELF-E and CBP80ΔNLS (CBP80 with residues 1–19 deleted[2]), which were expressed in High Five insect cells (Life Technology). Cells were harvested and lysed by sonication in lysis buffer containing 50 mM HEPES, pH 7.8, 300 mM NaCl, 10% (v/v) glycerol, 5 mM β-mercaptoethanol. Lysates were clarified by centrifugation and applied on an equilibrated Ni-sepharose column (GE Healthcare), washed with 20 mM imidazole in lysis buffer, and eluted with 300 mM imidazole in lysis buffer. While dialysing into 20 mM HEPES, pH 7.8, 120 mM NaCl, 10% (v/v) glycerol, 5 mM β-mercaptoethanol, the N-terminal 6-histidine-tag was cleaved with His-tagged Tobacco Etch Virus (TEV) protease overnight in a ratio 1:100 mg TEV per mg protein. The cleaved protein was further purified first on Ni-sepharose to remove TEV and then using an anion exchange column (HiTrap Q, GE Healthcare) followed if necessary by a Heparin column (GE Healthcare). In both cases a NaCl gradient from 50 to 800 mM in 20 mM HEPES 7.8, 0.5 mM tris(2-carboxyethyl)phosphine was used. To reconstitute the CBC heterodimer, cleared His-tagged CBP20 lysate was first immobilised on a Ni-sepharose column. After washing the column with lysis buffer, the cleared CBP80 lysate was applied to the column and further purification steps performed as described above. To remove the access of CBP20 the flow through of the Ni-column after TEV cleavage was loaded on an anion exchange column (HiTrap Q, GE Healthcare) and CBC eluted by a NaCl gradient as described above. In the text we refer to CBP80ΔNLS and CBP80ΔNLS-CBP20 as CBP80 and CBC, respectively. ARS2^845–871, NELF-E^354–380, and NELF-E^360–380 peptides, with or without FAM label at the N-terminus, were purchased from GenScript.
Background: ITC needs no label: the signal is the heat of the interaction.

For series [3], the target named is T2, m^7GTP-CBC (Homo sapiens, UniProt P52298+Q09161).
T2 construct: 6-histidine tag (pETM30 vector) (N, cleaved yes); made in house; host or cells: CBP20 in E. coli Rosetta 2; CBP80ΔNLS in High Five insect cells; heterodimer reconstituted on Ni-sepharose
T2 sequence (Q09161 20-790): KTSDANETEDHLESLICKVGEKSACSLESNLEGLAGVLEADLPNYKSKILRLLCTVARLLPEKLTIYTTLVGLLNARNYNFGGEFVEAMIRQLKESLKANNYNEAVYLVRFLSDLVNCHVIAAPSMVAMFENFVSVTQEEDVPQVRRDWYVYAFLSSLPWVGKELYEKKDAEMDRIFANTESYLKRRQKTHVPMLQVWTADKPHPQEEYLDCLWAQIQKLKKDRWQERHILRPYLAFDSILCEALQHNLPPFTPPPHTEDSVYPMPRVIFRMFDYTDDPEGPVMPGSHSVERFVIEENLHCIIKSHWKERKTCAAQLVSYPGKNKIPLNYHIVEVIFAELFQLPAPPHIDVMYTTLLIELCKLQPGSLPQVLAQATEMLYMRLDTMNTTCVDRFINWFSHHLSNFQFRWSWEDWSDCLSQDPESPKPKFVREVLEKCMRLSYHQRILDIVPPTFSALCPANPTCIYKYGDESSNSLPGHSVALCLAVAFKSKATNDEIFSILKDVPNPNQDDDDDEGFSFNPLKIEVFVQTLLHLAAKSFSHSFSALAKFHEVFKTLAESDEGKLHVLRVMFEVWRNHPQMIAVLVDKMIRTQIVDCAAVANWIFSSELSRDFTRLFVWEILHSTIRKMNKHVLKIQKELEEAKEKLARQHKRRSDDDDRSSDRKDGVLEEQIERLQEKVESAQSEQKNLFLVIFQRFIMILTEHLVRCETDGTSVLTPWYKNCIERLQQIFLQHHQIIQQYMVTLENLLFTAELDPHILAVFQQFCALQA
T2 sequence (P52298 1-156): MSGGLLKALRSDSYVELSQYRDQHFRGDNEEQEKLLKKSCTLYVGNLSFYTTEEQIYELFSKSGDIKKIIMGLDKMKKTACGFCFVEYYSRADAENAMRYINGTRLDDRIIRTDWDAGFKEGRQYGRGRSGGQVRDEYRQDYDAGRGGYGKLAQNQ
The experiment in a line: Fluorescence polarisation with FAM-labelled C-terminal peptides. The class given is binding. To be noted: competition, 40 nM FAM peptide, 25 µM m^7GTP, 25 °C, n = 3. On the procedure: Fig. 4 Incompatibility of ARS2-PHAX and NELF-E binding to CBC. a, b Competition on m^7GTP-sepharose. a In separate experiments, different amounts of ARS2^147–871 were added to preformed CBC–NELF–E complex immobilised on m^7GTP-sepharose. […] The fluorophore FAM is represented with a star. Note that different constructs of NELF-E and ARS2 were used in c, d, and e compared to f, g, and h and are therefore represented by slightly different shapes. Error bars show the SD of three experiments
Fluorescence anisotropy binding assays were performed with N-terminal FAM-labelled ARS2^845–871 and […] peptides. 40 nM peptides were titrated with increasing concentrations of proteins in 20 mM HEPES, pH 7.8, 120 mM NaCl, 2 mM tris(2-carboxyethyl)phosphine. For the competition assay CBC–ARS2 and CBC–NELF–E complexes were preformed in the presence of 25 µM m^7GTP using 40 nM ARS2^827–871(FAM) peptide together with 60 nM CBC and 40 nM NELF-E^354–380(FAM) peptide with 1 µM CBC. […] To observe a change in polarisation at reasonable protein concentrations, CBC and NELF-E^244–380 concentrations that saturate half of the FAM-labelled peptides were used to preform the individual complexes. Fluorescence polarisation was measured at 25 °C with a microplate reader (CLARIOstar BMG LABTECH) using an excitation wavelength of 495 nm and emission wavelength of 515 nm. For analysis the polarisation value for the peptide alone was subtracted from the measurements.
(Fluorescence polarisation rises when a labelled molecule tumbles more slowly, as on binding a larger partner.)

Results on 2 molecules are retold here after article PMC5670239, “Structural basis for mutually exclusive co-transcriptional nuclear cap-binding complexes with either NELF-E or ARS2” (Nature Communications, 2017).

What is called Kd is the constant that tells how readily two partners part at equilibrium. Read a low Kd as a tighter complex.

B1: PHAX 120–308: human PHAX residues 120–308 (protein, UniProt Q9H814 120-308, looked up, fragment)
chain: AVLQEQNQDAVATELGILGMEGTIDRSRQSETYNYLLAKKLRKESQEHTKDLDKELDEYMHGGKKMGSKEEENGQGHLKRKRPVKDRLGNRPEMNYKGRYEITAEDSQEKVADEISFRLQEPKKDLIARVVRIIGNKKAIELLMETAEVEQNGGLFIMNGSRRRTPGGVFLNLLKNTPSISEEQIKDIF
With B1, the “Interaction with CBC by SEC” value in series [1] was “No interaction via SEC”.

B2: PHAX 103–327: human PHAX residues 103–327, includes the full PHAX RBD (protein, UniProt Q9H814 103-327, looked up, fragment)
chain: SQKPPVAGGKKINNIWGAVLQEQNQDAVATELGILGMEGTIDRSRQSETYNYLLAKKLRKESQEHTKDLDKELDEYMHGGKKMGSKEEENGQGHLKRKRPVKDRLGNRPEMNYKGRYEITAEDSQEKVADEISFRLQEPKKDLIARVVRIIGNKKAIELLMETAEVEQNGGLFIMNGSRRRTPGGVFLNLLKNTPSISEEQIKDIFYIENQKEYENKKAARKRRT
In series [2], B2 registered an equilibrium dissociation constant (Kd) of 350 ± 71 nM. In series [3] (60 nM CBC), the “Change of polarisation on titration to m^7GTP-CBC-ARS2^845–871(FAM)” value is recorded as “did not affect the polarisation”. Moreover, the “Change of polarisation on titration to m^7GTP-CBC-NELF-E^354–380(FAM)” value in series [3] (1 µM CBC) is “did not change the polarisation”.
